Laboratory results: patent publication US20110262430A1 (published 2011)
Numbering of substitutions follows the chain as printed. In names and notes the source's numbering stands.

B1: CD20-B (anti-CD20 IgG1, wild type constant region, FUT8 deleted CHO DG44) (antibody)
heavy: not shown
light: QIVLSQSPAILSASPGEKVTMTCRASSSVSYIHWFQQKPGSSPKPWIYATSNLASGVPVRFSGSGSGTSYSLTISRVEAEDAATYYCQQWTSNPPTFGGGTKLEIKRTVAAPSVFIFPPSDEQLKSGTASVVCLLNNFYPREAKVQWKVDNALQSGNSQESVTEQDSKDSTYSLSSTLTLSKADYEKHKVYACEVTHQGLSSPVTKSFNRGEC
modifications: The Fc N-glycan is expected to lack fucose (host: FUT8 deleted CHO DG44). The letters cannot carry this.
B2: IGF1R-F (anti-IGF-1R H0L0 IgG1, wild type constant region, FUT8 deleted CHO DG44) (antibody)
heavy: not shown
light: DIVMTQSPLSLPVTPGEPASISCRSSQSIVQSNGDTYLEWYLQKPGQSPQLLIYRVSNRFSGVPDRFSGSGSGTDFTLKISRVEAEDVGVYYCFQGSHVPYTFGQGTKLEIKRTVAAPSVFIFPPSDEQLKSGTASVVCLLNNFYPREAKVQWKVDNALQSGNSQESVTEQDSKDSTYSLSSTLTLSKADYEKHKVYACEVTHQGLSSPVTKSFNRGEC
modifications: N-glycan fucose negative (all oligosaccharide species obtained from the sample are fucose negative)
notes: Same chains as IGF1R-E; differs by the host cell line; Campath leader left out
B3: IGF1R-G (anti-IGF-1R H0L0 IgG1 with S239D/I332E, CHO-E1a) (antibody)
heavy: not shown
light: B2 light
notes: Campath leader left out
B4: IGF1R-H (anti-IGF-1R H0L0 IgG1 with S239D/I332E, FUT8 deleted CHO DG44) (antibody)
heavy: not shown
light: B2 light
modifications: N-glycan from FUT8 deleted CHO DG44 host (glycoengineered)
notes: Same chains as IGF1R-G; differs by the host cell line; Campath leader left out
B5: CD20-A (anti-CD20 IgG1, wild type constant region, CHO-E1a) (antibody)
heavy: not shown
light: B1 light
B6: H0L0 humanised antibody (wild type human IgG1) (antibody)
heavy: not shown
light: B2 light
B7: H0L0 IgG1m(AA) (antibody)
heavy: not shown
light: B2 light
B8: H1L0 humanised antibody (wild type human IgG1) (antibody)
heavy: not shown
light: B2 light
B9: H1L0 IgG1m(AA) (antibody)
heavy: not shown
light: B2 light
notes: also called H10L0 IgG1m(AA) (as misprinted in several captions)
B10: 6E11 murine monoclonal antibody (antibody, V domains shown)
VH: EVQLQQSGPELVKPGASVRISCKASGYAFTDYYMNWVKQSHGKSLEWVANINPNNGGTNYNQKFKDKATLTVDKSSNTAYMELRSLTSEDTAVYYCARWILYYGRSKWYFDVWGTGTTVTVSS
VL: DVLMTQTPLSLPVSLGDHASISCRSSQSIVQSNGDTYLEWYLQKPGQSPKLLIYRISNRFSGVPDRFSGSGSGTDFTLKISRVEAEDLGVYYCFQGSHVPYTFGGGTKLEIKR
notes: Murine hybridoma antibody; Constant regions are murine IgG1/K or IgG2b/K; also called 6E11 parental; 6E11 mouse parental antibody
B11: 5G4 murine monoclonal antibody (antibody, V domains shown)
VH: EVQLQQSGPELVKPGASVKISCKASGYAFTDYYMNWVKQTHGRSLEWMANINPNTGGTNYNQKFRGKATLTVDKSSTTAYMELRSLTSEDSAVYYCARWILYYGSSRWYFDVWGTGTTVTVSS
VL: B10 VL with H18Q, S28T, Q31H, D35N, R55K, I56V, V90I
notes: Murine hybridoma antibody; murine constant regions not specified
B12: 15D9 murine monoclonal antibody (antibody, V domains shown)
VH: B11 VH with T40S, R43K, R65T, A97T, R107K
VL: B10 VL with H18Q, S28T, Q31H, D35N, I56V, N58Y, V83L, V90I
notes: as for B11

Molecular target: T1, His-tagged FcγRIIIa (F variant) extracellular domain (Heterogeneously glycosylated.)
T1 construct: also called FcγRIIIa (Phe); FcγRIIIa (Phe variant)
T1 sequence (chain, as listed by the source mutant limits assumed): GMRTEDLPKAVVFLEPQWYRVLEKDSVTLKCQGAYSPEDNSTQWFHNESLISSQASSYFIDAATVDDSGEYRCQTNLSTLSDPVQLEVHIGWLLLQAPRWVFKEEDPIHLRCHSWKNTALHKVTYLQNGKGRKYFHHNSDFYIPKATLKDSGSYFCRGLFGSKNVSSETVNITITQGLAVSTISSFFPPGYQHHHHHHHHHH
Assay: Biacore T100, His-tagged FcγRIIIa captured on anti-polyhistidine antibody, antibody injected 2-512 nM, 25°C, 1:1 model
Procedure: (§1) Qiagen anti-polyhistidine antibody (Cat No. 34670) was immobilised on CM5 biosensor chip using standard NHS/EDC activation, the antibody was diluted to 50 ug/ml in acetate pH4.0 buffer and passed over the activated surface for 20 minutes at 5 ul/minute, the surface was then blocked with ethanolamine. Prior to use the chip was conditioned by performing several regeneration steps using 100 mM phosphoric acid.
(§2) For analysis of the interaction of the FcγRIIIa with various antibody constructs, the poly-histidine tagged receptors were captured to around 20 RU's. […] Regeneration was carried out using 100 mM phosphoric acid following each antibody/buffer injection. The run was carried out using HBS-EP buffer and carried out at 25° C. on a T100 Biacore machine. The data was analysed using the analysis software inherent to the machine using the 1:1 and Bivalent models.

Q: Which Kd does the source give for B1 here?
A: The Kd was 20.7 nM.

Q: For B2, which Kd is on record?
A: Its Kd is 59.6 nM.

Q: For B3, which Kd is on record?
A: Its Kd is 14.9 nM.

Q: How did the Kd turn out when B4 was run?
A: The Kd was 1.11 nM.

Molecular target: T2, His-tagged FcγRIIIa (V variant) extracellular domain (Heterogeneously glycosylated.)
T2 construct: also called FcγRIIIa (Val); FcγRIIIa (Val variant)
T2 sequence (chain, as listed by the source mutant limits assumed): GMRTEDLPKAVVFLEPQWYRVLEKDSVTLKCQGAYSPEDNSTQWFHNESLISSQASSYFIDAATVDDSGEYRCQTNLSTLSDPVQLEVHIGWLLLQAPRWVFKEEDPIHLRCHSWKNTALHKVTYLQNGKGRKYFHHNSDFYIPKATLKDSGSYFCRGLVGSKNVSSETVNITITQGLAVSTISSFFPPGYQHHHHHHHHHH
Assay: as above
Procedure: as §1, §2

Q: Which Kd does the source give for B1 here?
A: The Kd was 5.9 nM.

Q: For B5, which Kd is on record?
A: The Kd was 39.5 nM.

Q: For B2, which Kd is on record?
A: The Kd was 12.1 nM.

Q: B3 was tested. Which Kd did it give?
A: Its Kd is 7.27 nM.

Q: B4 was tested. Which Kd did it give?
A: The Kd was 0.832 nM.

Molecular target: T3, Cynomolgus macaque monkey IGF-1R-Fc fusion protein (cynomolgus macaque monkey (Macaca …))
T3 construct: The entry begins with the native signal peptide; also called recombinant Cynomolgus macaque IGF-1R; recombinant cynomolgus macaque IGF-1R
T3 sequence (chain, as listed by the source limits assumed): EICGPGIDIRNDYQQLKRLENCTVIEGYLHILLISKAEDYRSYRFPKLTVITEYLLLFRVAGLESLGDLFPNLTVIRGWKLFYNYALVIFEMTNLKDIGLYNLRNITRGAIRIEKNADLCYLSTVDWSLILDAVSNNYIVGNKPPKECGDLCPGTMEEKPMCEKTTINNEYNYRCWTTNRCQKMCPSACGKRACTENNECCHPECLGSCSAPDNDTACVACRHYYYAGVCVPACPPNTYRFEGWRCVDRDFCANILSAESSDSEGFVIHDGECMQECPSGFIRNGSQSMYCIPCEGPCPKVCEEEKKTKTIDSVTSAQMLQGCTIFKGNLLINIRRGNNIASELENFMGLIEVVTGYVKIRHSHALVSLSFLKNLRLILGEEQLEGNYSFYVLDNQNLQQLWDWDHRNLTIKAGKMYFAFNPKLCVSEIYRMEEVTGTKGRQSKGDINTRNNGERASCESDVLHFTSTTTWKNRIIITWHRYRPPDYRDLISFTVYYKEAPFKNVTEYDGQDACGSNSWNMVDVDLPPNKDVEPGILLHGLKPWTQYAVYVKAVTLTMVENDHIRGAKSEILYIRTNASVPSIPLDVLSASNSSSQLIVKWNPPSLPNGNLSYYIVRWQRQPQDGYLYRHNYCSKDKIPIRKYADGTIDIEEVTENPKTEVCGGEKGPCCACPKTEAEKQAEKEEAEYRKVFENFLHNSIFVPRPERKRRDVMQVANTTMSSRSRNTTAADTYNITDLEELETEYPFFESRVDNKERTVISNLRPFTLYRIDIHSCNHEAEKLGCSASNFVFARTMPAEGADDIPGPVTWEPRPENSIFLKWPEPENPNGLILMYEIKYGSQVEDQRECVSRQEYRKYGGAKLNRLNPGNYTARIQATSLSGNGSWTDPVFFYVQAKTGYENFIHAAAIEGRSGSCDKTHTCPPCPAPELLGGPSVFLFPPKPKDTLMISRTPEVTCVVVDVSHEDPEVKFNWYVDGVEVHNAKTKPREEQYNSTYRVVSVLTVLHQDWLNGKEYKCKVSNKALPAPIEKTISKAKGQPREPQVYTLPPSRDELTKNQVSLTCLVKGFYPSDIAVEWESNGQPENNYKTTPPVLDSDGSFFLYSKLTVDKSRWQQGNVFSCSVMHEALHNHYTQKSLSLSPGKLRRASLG
Assay: binding ELISA: plate coated with recombinant cynomolgus macaque IGF-1R-Fc, antibody titrated, anti-human kappa light chain-HRP detection, OD 490nm
Procedure: (§3) 96 well ELISA plates were coated overnight with recombinant Cynomolgus macaque IGF-1R (see Example 4) at 1-2 μg/ml and blocked with 4% BSA/PBS. Purified anti-hIGF-1R antibodies were added and incubated for 1 hour at room temperature. The plates were washed in TBST and HRP conjugated anti mouse Ig (DAKO #P0260) was added to each well at 0.6-1.0 μg/ml. Plates were incubated for 1 hour at room temperature, washed with TBST and developed with OPD substrate (Sigma P9187) or TMB substrate (Sigma T8665). […] For antibodies containing a human IgG1/Cκ constant region, the HRP conjugated anti mouse Ig detection antibody was substituted with a goat anti-human Kappa Light Chains peroxidase conjugate (Sigma, A7164)

Q: Does B6 bind?
A: Result: binds

Q: Does B7 bind?
A: Result: binds

Q: Does B8 bind?
A: Result: binds

Q: Does B9 bind?
A: Result: binds

Molecular target: T1, His-tagged FcγRIIIa (F variant) …
Assay: Biacore T100, His-tagged FcγRIIIa captured on anti-polyhistidine antibody, antibody injected 2-512 nM, 25°C, Bivalent model
Procedure: as §1, §2

Q: B1 was tested. Which Kd did it give?
A: The Kd was 75.6 nM.

Q: Which Kd does the source give for B5 here?
A: Its Kd is 78.2 nM.

Q: How did the Kd turn out when B2 was run?
A: Its Kd is 131 nM.

Q: Which Kd does the source give for B3 here?
A: Its Kd is 88.9 nM.

Q: How did the Kd turn out when B4 was run?
A: Its Kd is 51.7 nM.

Molecular target: T2, His-tagged FcγRIIIa (V variant) …
Assay: as above
Procedure: as §1, §2

Q: B1 was tested. Which Kd did it give?
A: Its Kd is 74.1 nM.

Q: B5 was tested. Which Kd did it give?
A: The Kd was 274 nM.

Q: B2 was tested. Which Kd did it give?
A: The Kd was 146 nM.

Q: For B3, which Kd is on record?
A: Its Kd is 68.8 nM.

Q: With B4 as the binder, how does the Kd read?
A: Its Kd is 2.7 nM.

Molecular target: T3, Cynomolgus macaque monkey IGF-1R-Fc …
Assay: binding ELISA: plate coated with recombinant cynomolgus macaque IGF-1R-Fc, antibody titrated, anti-mouse Ig-HRP detection, OD 450nm
Procedure: as §3

Q: How did the “EC50 (read off the curve)” value turn out when B10 was run?
A: The value was roughly 0.04 µg/mL.

Q: Which “EC50 (read off the curve)” value does the source give for B11 here?
A: Its value is roughly 0.1 µg/mL.

Q: Does B12 bind?
A: Result: binds
